We go through one substance from publication PMC7864917.

The target in the assay is wild-type pig RyR1 (ryanodine receptor 1) (pig (purified from porcine skeletal muscle)) (UniProt P16960).
UniProt P16960, sequence (P16960 whole entry): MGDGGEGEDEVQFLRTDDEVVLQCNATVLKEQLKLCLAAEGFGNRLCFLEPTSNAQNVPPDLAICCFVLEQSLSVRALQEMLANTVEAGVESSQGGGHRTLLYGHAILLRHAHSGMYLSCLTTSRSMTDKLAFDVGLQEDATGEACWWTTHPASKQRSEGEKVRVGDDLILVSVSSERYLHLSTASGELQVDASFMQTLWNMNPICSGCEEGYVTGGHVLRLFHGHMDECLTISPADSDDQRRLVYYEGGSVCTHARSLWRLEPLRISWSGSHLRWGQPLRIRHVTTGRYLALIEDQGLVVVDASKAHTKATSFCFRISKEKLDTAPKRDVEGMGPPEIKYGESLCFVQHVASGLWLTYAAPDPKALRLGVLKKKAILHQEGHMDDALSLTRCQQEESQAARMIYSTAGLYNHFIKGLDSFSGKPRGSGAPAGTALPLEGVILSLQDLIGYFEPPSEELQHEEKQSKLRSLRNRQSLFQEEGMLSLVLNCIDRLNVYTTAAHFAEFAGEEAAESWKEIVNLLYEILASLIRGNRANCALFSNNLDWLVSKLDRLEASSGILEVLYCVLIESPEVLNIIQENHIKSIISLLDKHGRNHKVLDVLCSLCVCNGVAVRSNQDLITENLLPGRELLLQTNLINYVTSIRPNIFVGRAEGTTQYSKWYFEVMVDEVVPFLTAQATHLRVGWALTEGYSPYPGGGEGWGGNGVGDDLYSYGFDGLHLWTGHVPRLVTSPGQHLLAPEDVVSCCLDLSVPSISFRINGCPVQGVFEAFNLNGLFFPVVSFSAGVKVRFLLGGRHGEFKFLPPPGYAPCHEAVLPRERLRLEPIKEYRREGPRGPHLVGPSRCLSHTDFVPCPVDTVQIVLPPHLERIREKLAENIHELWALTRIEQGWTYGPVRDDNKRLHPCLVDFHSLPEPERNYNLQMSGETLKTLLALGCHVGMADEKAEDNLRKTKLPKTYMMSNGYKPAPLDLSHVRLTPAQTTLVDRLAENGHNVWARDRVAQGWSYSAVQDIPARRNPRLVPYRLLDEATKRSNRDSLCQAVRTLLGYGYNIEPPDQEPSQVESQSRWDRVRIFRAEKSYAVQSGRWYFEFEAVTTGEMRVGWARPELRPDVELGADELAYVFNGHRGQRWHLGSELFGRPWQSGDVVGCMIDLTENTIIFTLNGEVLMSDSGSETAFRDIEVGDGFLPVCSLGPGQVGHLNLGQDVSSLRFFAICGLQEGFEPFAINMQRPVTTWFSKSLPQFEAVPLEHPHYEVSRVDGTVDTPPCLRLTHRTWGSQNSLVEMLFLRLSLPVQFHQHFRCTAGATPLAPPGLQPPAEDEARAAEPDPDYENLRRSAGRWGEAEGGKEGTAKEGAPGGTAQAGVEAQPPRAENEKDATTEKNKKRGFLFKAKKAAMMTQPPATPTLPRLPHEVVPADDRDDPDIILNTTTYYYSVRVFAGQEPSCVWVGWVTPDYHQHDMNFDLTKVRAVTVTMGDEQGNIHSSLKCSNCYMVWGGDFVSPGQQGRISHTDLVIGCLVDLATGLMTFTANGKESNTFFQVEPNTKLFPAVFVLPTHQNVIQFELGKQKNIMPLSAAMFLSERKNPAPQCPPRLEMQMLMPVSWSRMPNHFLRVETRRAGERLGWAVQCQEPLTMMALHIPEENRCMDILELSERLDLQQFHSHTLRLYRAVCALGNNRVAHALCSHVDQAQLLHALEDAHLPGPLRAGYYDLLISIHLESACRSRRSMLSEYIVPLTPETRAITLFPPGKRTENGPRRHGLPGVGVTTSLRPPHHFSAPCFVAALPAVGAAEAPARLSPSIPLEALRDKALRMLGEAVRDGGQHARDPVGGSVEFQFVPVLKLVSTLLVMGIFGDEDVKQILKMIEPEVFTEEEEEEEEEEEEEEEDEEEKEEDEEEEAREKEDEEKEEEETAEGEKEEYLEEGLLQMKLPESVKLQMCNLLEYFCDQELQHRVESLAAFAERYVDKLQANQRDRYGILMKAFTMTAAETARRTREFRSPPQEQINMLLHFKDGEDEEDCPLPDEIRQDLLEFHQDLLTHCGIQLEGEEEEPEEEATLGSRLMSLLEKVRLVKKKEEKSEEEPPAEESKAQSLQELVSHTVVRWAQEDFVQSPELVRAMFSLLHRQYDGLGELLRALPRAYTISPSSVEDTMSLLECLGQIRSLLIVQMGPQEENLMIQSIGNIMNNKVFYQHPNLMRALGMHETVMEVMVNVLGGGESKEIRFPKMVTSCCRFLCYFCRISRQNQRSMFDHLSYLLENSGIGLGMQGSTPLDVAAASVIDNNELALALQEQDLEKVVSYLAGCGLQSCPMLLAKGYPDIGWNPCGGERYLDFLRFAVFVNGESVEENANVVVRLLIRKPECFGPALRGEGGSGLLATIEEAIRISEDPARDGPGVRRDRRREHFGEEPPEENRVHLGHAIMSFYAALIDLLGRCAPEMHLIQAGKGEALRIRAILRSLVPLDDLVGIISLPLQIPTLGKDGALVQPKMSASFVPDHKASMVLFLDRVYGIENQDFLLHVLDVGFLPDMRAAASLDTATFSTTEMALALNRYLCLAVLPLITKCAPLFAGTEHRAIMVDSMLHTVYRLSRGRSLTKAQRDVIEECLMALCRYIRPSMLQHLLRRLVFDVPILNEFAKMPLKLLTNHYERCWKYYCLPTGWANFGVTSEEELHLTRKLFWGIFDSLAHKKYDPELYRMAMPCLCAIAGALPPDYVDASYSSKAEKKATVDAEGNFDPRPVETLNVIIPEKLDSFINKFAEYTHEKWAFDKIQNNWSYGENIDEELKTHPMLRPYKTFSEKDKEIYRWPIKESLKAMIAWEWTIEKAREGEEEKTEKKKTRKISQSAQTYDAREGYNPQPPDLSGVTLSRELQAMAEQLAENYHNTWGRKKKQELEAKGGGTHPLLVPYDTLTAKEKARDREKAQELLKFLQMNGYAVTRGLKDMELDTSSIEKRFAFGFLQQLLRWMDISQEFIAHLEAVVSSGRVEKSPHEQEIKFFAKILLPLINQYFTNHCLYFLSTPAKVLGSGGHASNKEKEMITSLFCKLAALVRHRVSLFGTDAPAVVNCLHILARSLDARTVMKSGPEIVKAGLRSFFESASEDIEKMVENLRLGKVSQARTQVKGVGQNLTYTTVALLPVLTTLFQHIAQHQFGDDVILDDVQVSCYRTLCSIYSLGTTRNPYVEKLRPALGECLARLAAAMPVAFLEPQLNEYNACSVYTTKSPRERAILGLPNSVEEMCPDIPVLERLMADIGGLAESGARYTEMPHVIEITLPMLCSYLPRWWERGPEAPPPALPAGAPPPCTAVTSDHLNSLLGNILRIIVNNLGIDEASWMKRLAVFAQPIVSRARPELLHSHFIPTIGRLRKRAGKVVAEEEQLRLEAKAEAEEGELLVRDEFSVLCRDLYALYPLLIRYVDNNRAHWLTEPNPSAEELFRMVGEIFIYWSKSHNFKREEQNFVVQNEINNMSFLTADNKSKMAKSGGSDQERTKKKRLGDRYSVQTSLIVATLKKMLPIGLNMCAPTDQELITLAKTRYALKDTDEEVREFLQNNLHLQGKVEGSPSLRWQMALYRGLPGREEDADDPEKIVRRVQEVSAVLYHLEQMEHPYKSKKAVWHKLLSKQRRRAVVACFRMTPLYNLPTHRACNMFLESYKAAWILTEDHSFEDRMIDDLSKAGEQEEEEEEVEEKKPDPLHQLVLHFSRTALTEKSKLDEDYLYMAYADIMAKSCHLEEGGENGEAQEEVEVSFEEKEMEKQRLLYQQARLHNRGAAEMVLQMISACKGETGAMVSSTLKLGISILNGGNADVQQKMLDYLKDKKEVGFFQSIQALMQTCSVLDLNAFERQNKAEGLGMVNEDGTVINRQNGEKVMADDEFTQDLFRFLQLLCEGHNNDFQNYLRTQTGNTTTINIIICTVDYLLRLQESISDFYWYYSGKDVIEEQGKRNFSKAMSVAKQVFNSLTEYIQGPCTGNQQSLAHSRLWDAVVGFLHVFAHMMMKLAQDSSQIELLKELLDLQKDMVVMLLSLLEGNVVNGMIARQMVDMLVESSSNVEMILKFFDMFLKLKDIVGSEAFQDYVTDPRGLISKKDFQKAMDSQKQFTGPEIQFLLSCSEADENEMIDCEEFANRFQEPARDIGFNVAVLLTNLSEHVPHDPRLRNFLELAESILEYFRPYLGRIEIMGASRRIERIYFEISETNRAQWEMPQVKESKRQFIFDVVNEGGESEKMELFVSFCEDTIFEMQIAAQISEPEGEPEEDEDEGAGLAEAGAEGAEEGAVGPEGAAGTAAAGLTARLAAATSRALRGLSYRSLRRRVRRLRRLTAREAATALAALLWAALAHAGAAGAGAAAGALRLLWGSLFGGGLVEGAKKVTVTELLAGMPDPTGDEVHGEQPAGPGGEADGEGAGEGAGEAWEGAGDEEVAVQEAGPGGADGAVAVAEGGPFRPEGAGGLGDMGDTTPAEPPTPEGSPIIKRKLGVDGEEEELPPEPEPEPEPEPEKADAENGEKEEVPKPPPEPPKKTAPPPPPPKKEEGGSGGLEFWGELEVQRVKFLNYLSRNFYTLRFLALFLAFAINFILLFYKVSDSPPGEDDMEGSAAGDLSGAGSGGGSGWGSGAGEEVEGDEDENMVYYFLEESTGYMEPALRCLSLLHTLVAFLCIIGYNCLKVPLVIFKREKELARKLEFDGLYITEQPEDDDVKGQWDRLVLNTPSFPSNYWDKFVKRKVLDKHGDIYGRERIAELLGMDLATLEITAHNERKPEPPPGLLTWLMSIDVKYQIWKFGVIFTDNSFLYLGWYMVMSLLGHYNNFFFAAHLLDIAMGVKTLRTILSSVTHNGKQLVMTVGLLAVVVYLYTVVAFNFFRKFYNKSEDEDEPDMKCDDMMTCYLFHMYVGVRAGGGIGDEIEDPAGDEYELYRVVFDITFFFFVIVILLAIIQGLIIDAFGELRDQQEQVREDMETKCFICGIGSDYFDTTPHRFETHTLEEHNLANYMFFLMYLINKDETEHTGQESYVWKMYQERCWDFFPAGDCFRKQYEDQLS

On to “apo-calmodulin (from UniProt P0DP23 1-149) (natural protein)”, for which the single-channel open probability (Po) in planar lipid bilayers with 1 uM calmodulin, 40 nM free Ca2+, 2 mM ATP worked out at 2 fold.
